{"source": "paper PMC4175327", "biological_target": "human beta2-microglobulin (hβ2m), monomer (human) (UniProt P61769)", "sequence (P61769 21-119)": "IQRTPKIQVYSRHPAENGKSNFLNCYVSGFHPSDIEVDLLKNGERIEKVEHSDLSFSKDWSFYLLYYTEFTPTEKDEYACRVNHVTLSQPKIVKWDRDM", "experiment": "SPR", "details": "2'-fluoro C and U; 50 mM MES, 120 mM NaCl, pH 6.2; fluorescence and NMR at 25 °C (NMR plus 0.02% azide, 0.1 mM EDTA, 10% D2O); SPR temperature not stated", "note": "pKd: −log10 of the molar value.", "data": [{"sequence": "GGGAAUGGAUCCACAUCUACGAAUUCUGAGCUACUCCCUUUUGGGCCCGGCUAUGAUUCACUGCAGACUUGACGAAGCUU [2'F B6 (full-length aptamer, 110 nt)]", "values": [{"measurement": "pKd", "value": 6.30}]}]}
